Usually Kd stands for the equilibrium constant for the complex coming apart. Low readings indicate tighter binding, high ones weaker binding.

The source of these data is patent US20140199302A1 (GENERAL HOSPITAL, published 2014).

The target of experiment [1] is T1, soluble human hemojuvelin with a HIS-tag (HJV.His) (human, UniProt Q6ZVN8 36-400, limits assumed).
T1 construct: also called monomeric HJV.His; not shown: HIS-tag
T1 sequence (looked up): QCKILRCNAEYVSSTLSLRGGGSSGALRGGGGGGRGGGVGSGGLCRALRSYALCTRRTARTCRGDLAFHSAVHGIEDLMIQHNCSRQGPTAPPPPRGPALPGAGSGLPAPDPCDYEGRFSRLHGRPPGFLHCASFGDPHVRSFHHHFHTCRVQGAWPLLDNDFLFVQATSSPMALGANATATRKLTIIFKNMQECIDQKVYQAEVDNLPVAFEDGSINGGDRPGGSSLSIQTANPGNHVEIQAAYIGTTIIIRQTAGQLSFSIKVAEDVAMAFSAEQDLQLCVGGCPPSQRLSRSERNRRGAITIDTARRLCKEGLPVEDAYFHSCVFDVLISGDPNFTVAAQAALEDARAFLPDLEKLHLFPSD
The experiment in a line: SPR (Biacore), human BMP6 amine-coupled on CM5 chip, one-site univalent fit model; monomeric HJV.His; one-site univalent fit. For orientation: Surface plasmon resonance follows binding to a sensor surface in real time, without labels.

In experiment [2] the target is T1, soluble human hemojuvelin with a …. The experiment in a line: Biacore SPR, HJV.His in solution over human BMP6 immobilized on a CM5 chip by amine coupling; 1:1 binding fit (Chi2 9.32 printed beside it).

B1: human BMP6 (ligand, UniProt P22004 382-513, looked up)
chain: QQSRNRSTQSQDVARVSSASDYNSSELKTACRKHELYVSFQDLGWQDWIIAPKGYAANYCDGECSFPLNAHMNATNHAIVQTLVHLMNPEYVPKPCCAPTKLNAISVLYFDDNSNVILKKYRNMVVRACGCH
notes: also called bone morphogenic protein-6
Turning to B1, the Kd in experiment [1] is roughly 33 nM; in experiment [2] it was 36 nM.
